Experiments:
Assay in all cases: two-hybrid library CCmax;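 note: natural log of median RNA to DNA barcode read ratio; higher means stronger binding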
4H2931-AA = molecular target: T1, 4H2931-AA; details: mean of both orientations
T1 chain: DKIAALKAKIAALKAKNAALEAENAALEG

4H3073-AA = molecular target: T2, 4H3073-AA; details: mean of both orientations
T2 chain: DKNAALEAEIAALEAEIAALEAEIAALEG

4H3015-AA = molecular target: T3, 4H3015-AA; details: mean of both orientations
T3 chain: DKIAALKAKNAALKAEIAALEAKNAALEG

4H406-AA = molecular target: T4, 4H406-AA; details: mean of both orientations
T4 chain: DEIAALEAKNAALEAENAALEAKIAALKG

4H963-AA = molecular target: T5, 4H963-AA; details: mean of both orientations
T5 chain: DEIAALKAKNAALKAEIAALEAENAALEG

4H2774-AA = molecular target: T6, 4H2774-AA; details: mean of both orientations
T6 chain: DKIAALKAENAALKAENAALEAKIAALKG

4H3340-AA = molecular target: T7, 4H3340-AA; details: mean of both orientations
T7 chain: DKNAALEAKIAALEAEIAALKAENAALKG

4H688-AA = molecular target: T8, 4H688-AA; details: mean of both orientations
T8 chain: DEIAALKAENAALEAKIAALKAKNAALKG

GCN2_T = molecular target: GCN2_T
4H3493-AA = molecular target: T9, 4H3493-AA; details: mean of both orientations
T9 chain: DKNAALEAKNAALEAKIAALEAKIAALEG

4H56-AA = molecular target: T10, 4H56-AA; details: mean of both orientations
T10 chain: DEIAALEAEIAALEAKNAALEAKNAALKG

4H2611-AA = molecular target: T11, 4H2611-AA; details: mean of both orientations
T11 chain: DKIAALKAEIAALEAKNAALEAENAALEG

4H3001-AA = molecular target: T12, 4H3001-AA; details: mean of both orientations
T12 chain: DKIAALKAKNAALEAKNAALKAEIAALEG

4H2732-AA = molecular target: T13, 4H2732-AA; details: mean of both orientations
T13 chain: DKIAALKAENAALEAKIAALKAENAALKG

4H_GCN4 = molecular target: 4H_GCN4
Chain of 4H_GCN4 (chain, as listed by the source): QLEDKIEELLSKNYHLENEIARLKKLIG

4H3381-AA = molecular target: T14, 4H3381-AA; details: mean of both orientations
T14 chain: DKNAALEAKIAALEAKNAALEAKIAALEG

4H3438-AA = molecular target: T15, 4H3438-AA; details: mean of both orientations
T15 chain: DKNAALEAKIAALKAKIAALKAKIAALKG

4H452-AA = molecular target: T16, 4H452-AA; details: mean of both orientations
T16 chain: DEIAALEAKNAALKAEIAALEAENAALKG

4H376-AA = molecular target: T17, 4H376-AA; details: mean of both orientations
T17 chain: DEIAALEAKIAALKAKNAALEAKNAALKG

4H347-AA = molecular target: T18, 4H347-AA; details: mean of both orientations
T18 chain: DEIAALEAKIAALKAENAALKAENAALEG

4H2592-AA = molecular target: T19, 4H2592-AA
T19 chain: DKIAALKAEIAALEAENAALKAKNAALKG

4H_APH = molecular target: T20, 4H_APH; details: mean of both orientations
T20 chain: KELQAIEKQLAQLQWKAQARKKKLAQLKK

4H_BCR = molecular target: T21, 4H_BCR; details: mean of both orientations
T21 chain: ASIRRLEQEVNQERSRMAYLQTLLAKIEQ

- interaction score (4H2931-AA): 1.75
- interaction score (4H3073-AA): -0.000754
- interaction score (4H3015-AA): -1.39
- interaction score (4H406-AA): -1.19
- interaction score (4H963-AA): -0.435
- interaction score (4H2774-AA): 0.283
- interaction score (4H3340-AA): 0.143
- interaction score (4H688-AA): -1.42
- interaction score (GCN2_T): -1.04
- interaction score (4H3493-AA): -1.21
- interaction score (4H56-AA): -0.726
- interaction score (4H2611-AA): 0.971
- interaction score (4H3001-AA): -1.68
- interaction score (4H2732-AA): 0.248
- interaction score (4H_GCN4): -1.33
- interaction score (4H3381-AA): -1.72
- interaction score (4H3438-AA): -0.819
- interaction score (4H452-AA): -0.641
- interaction score (4H376-AA): 0.226
- interaction score (4H347-AA): 1.59
- interaction score (4H2592-AA): 1.34
- interaction score (4H_APH): -1.66
- interaction score (4H_BCR): -1.75
Binder: DKIAALKAEIAALEAENAALKAKNAALKG [4H2592-AA]

— PMC10397247
